From the supplement of paper PMC7125110
± gives the standard error. For some assays here: This sample holds only a part of the variants without activity.

B1: glmS ribozyme (parent)
chain: AUAAAAGCGCCAGAACUACAGAAAUGUAGUUGACGAGGAGGAGGUUUAUCGAAUUUUCGGCGGAUGCCUCCAAA

Columns and labels:
Conditions in all cases: with glucosamine-6-phosphate
[1] = variants of: B1; test: kcat; higher = faster cleavage; RNA array
Method in brief: (§1)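 Sequenced MiSeq chips were the platform: E. coli RNA polymerase transcribed barcoded ribozyme variants on them in situ, and a hybridised Cy3 probe tracked these at 37 °C. After glucosamine-6-phosphate (40 μM to 10 mM) in HEPES/KCl/Mg(OAc)2 buffer was flowed in, tiles were imaged over ~14 h. Signals normalised to baseline and to non-cleaving reference variants were reduced to per-tile medians and fit to one- or two-exponential decays to obtain kobs. kcat and KM were derived through weighted Michaelis–Menten fits across concentrations.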

[2] = variants of: B1; test: KM; higher = weaker cofactor use; RNA array
Method in brief: as §1

[3] = variants of: B1; test: self-cleavage kobs at 40 uM GlcN6P; higher = faster cleavage; RNA array
Method in brief: as §1

[4] = variants of: B1; test: self-cleavage kobs at 160 uM GlcN6P; higher = faster cleavage; RNA array
Method in brief: as §1

[5] = variants of: B1; test: self-cleavage kobs at 640 uM GlcN6P; higher = faster cleavage; RNA array
Method in brief: as §1

[6] = variants of: B1; test: self-cleavage kobs at 2500 uM GlcN6P; higher = faster cleavage; RNA array
Method in brief: as §1

[7] = variants of: B1; test: self-cleavage kobs at 10000 uM GlcN6P; higher = faster cleavage; RNA array
Method in brief: as §1

Variant	kcat [1]	KM [2]	self-cleavage kobs at 40 uM GlcN6P [3]	self-cleavage kobs at 160 uM GlcN6P [4]	self-cleavage kobs at 640 uM GlcN6P [5]	self-cleavage kobs at 2500 uM GlcN6P [6]	self-cleavage kobs at 10000 uM GlcN6P [7]
U31C C71A	0.000686 ± 0.00019 s⁻¹	1470 ± 630 µM	3.6e-05 ± 1.1e-05 s⁻¹	7.42e-05 ± 8.6e-06 s⁻¹	0.00018 ± 1.9e-05 s⁻¹	0.000669 ± 9.6e-05 s⁻¹	0.00057 ± 7.8e-05 s⁻¹
U31A U57G	4.33e-05 ± 3.3e-06 s⁻¹	2970 ± 780 µM					3.33e-05 ± 1.1e-05 s⁻¹
G29C U47G	0.000341 ± 9.9e-05 s⁻¹				7.76e-05 ± 1.8e-05 s⁻¹	0.000393 ± 8.4e-05 s⁻¹	0.000269 ± 4.6e-05 s⁻¹
G29C U47A	0.00173 ± 0.00071 s⁻¹		4.95e-05 ± 1.1e-05 s⁻¹	7.89e-05 ± 1.6e-05 s⁻¹	0.000293 ± 3.8e-05 s⁻¹	0.000579 ± 8.4e-05 s⁻¹	0.00158 ± 0.0002 s⁻¹
G29C G66C	2.22e-05 ± 9.6e-06 s⁻¹						
G29U C67A	0.000685 ± 0.00017 s⁻¹	812 ± 370 µM	5.58e-05 ± 7.8e-06 s⁻¹	9.85e-05 ± 1.4e-05 s⁻¹	0.000276 ± 3.9e-05 s⁻¹	0.000437 ± 5.6e-05 s⁻¹	0.000787 ± 8.4e-05 s⁻¹
U30A A33C	6.48e-05 ± 3e-06 s⁻¹	4930 ± 560 µM					4.35e-05 ± 1.2e-05 s⁻¹
G29U G37C	1.83e-05 ± 2.2e-06 s⁻¹						
U31C A53U	0.00494 ± 0.0007 s⁻¹	2460 ± 510 µM	9.39e-05 ± 8.5e-06 s⁻¹	0.000269 ± 4.7e-05 s⁻¹	0.000925 ± 8.8e-05 s⁻¹	0.00236 ± 0.00022 s⁻¹	0.00421 ± 0.00036 s⁻¹
U31C A53G	0.00573 ± 0.0015 s⁻¹	1960 ± 740 µM	0.000158 ± 1.8e-05 s⁻¹	0.000305 ± 5.6e-05 s⁻¹	0.00167 ± 0.00042 s⁻¹	0.00309 ± 0.00042 s⁻¹	0.00495 ± 0.00059 s⁻¹
U31C C61A	3.08e-05 ± 1.2e-05 s⁻¹						< 1e-05 s⁻¹
G29C G37A	0.000262 ± 4.4e-05 s⁻¹	6200 ± 1700 µM				7.11e-05 ± 1.8e-05 s⁻¹	0.000165 ± 3.8e-05 s⁻¹
U30A G40U	0.000556 ± 6.4e-05 s⁻¹	2160 ± 580 µM			0.000117 ± 3e-05 s⁻¹	0.000367 ± 9e-05 s⁻¹	0.000446 ± 6.3e-05 s⁻¹
U30A C70A	6.65e-05 ± 2.4e-05 s⁻¹					7.75e-05 ± 1.6e-05 s⁻¹	5.12e-05 ± 1.3e-05 s⁻¹
G29U G38A	< 1e-05 s⁻¹			< 1e-05 s⁻¹	< 1e-05 s⁻¹	< 1e-05 s⁻¹	
G29U A53U	0.00357 ± 0.00055 s⁻¹	1600 ± 360 µM	8.45e-05 ± 1e-05 s⁻¹	0.000275 ± 4.9e-05 s⁻¹	0.00114 ± 0.00013 s⁻¹	0.00252 ± 0.00027 s⁻¹	0.00266 ± 0.00038 s⁻¹

Variant	kcat [1]	KM [2]	self-cleavage kobs at 40 uM GlcN6P [3]	self-cleavage kobs at 160 uM GlcN6P [4]	self-cleavage kobs at 640 uM GlcN6P [5]	self-cleavage kobs at 2500 uM GlcN6P [6]	self-cleavage kobs at 10000 uM GlcN6P [7]
U30G C67A	0.00145 ± 0.00047 s⁻¹		6.13e-05 ± 1.3e-05 s⁻¹	0.000175 ± 3.3e-05 s⁻¹	0.000561 ± 9.1e-05 s⁻¹	0.00063 ± 0.00017 s⁻¹	0.00188 ± 0.00029 s⁻¹
U31A A39U	0.0125 ± 0.0029 s⁻¹	3370 ± 1000 µM	0.000161 ± 2.9e-05 s⁻¹	0.000508 ± 8.4e-05 s⁻¹	0.00196 ± 0.00029 s⁻¹	0.00802 ± 0.0015 s⁻¹	0.00871 ± 0.0014 s⁻¹
U31A A39G	0.0529 ± 0.014 s⁻¹	4340 ± 1300 µM	0.000491 ± 7.7e-05 s⁻¹	0.00202 ± 0.00038 s⁻¹	0.00495 ± 0.0018 s⁻¹	0.0245 ± 0.0078 s⁻¹	0.0363 ± 0.0095 s⁻¹
U30A A39U	0.00467 ± 0.0022 s⁻¹		0.000191 ± 5.4e-05 s⁻¹	0.000401 ± 8.1e-05 s⁻¹	0.00188 ± 0.00036 s⁻¹	0.0022 ± 0.00046 s⁻¹	0.00745 ± 0.0016 s⁻¹
U30A G41U	0.000138 ± 2.1e-05 s⁻¹	608 ± 300 µM			6.73e-05 ± 9.9e-06 s⁻¹	0.000147 ± 1.8e-05 s⁻¹	0.000117 ± 1.4e-05 s⁻¹
U30A G41A	0.000441 ± 3.4e-05 s⁻¹	6390 ± 730 µM			3.92e-05 ± 1.2e-05 s⁻¹	0.000127 ± 2.3e-05 s⁻¹	0.000265 ± 5.7e-05 s⁻¹
U30G G41U	0.000172 ± 2.3e-05 s⁻¹	440 ± 190 µM		3.73e-05 ± 1.4e-05 s⁻¹	0.000153 ± 3.3e-05 s⁻¹	0.000149 ± 2.6e-05 s⁻¹	0.000154 ± 2.4e-05 s⁻¹
U30A U55C G66C	8.18e-05 ± 2.7e-05 s⁻¹					0.000101 ± 2e-05 s⁻¹	6.89e-05 ± 1.1e-05 s⁻¹
G29U A64C	1.56e-05 ± 2.5e-06 s⁻¹		< 1e-05 s⁻¹				
G29C A52U C70G	2.41e-05 ± 5.5e-06 s⁻¹		< 1e-05 s⁻¹				
G29C A48U U69G	6.26e-05 ± 2.1e-05 s⁻¹				5.01e-05 ± 2.1e-05 s⁻¹	7.04e-05 ± 3e-05 s⁻¹	
G29C C68U	0.000269 ± 5.9e-05 s⁻¹	959 ± 460 µM	2.38e-05 ± 1.1e-05 s⁻¹	4.12e-05 ± 5.7e-06 s⁻¹	0.000112 ± 8.7e-06 s⁻¹	0.000172 ± 1.2e-05 s⁻¹	0.000368 ± 3.6e-05 s⁻¹
G29U U45C	0.000348 ± 1.1e-05 s⁻¹	2130 ± 200 µM			7.89e-05 ± 3.4e-05 s⁻¹	0.000204 ± 0.0001 s⁻¹	0.000286 ± 4.9e-05 s⁻¹
U31A A42U	0.000111 ± 8.8e-06 s⁻¹	3380 ± 670 µM				5.06e-05 ± 1.3e-05 s⁻¹	8.19e-05 ± 1.4e-05 s⁻¹
U31A G66U	0.000713 ± 5.1e-05 s⁻¹	1380 ± 190 µM	2.99e-05 ± 1.3e-05 s⁻¹	7.61e-05 ± 1.5e-05 s⁻¹	0.000206 ± 3.9e-05 s⁻¹	0.000466 ± 7.9e-05 s⁻¹	0.000631 ± 7.6e-05 s⁻¹
